This passage reports koff and Kd results from PMC10769878 (2024).

B3: MazF (enzyme)
chain: MIVKRGDVYFADLSPVVGSEQGGVRPVLVIQNDIGNRFSPTAIVAAIAAQIQKAKLPTHVEIDAKRYGFERDSVILLEQIRTIDKQRLTDKITHLDDEMMDKVDEALQISLALIDF

What all share (experiment): BLI
Assay [1] concerns the target B3.
The target of assay [2] is T1, phi3T_93 (Bacillus subtilis phage phi3T).
T1 chain: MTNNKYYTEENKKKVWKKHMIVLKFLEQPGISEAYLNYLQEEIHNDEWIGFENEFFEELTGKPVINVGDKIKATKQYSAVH

Assay [3] concerns the target B3.
For assay [4], the target named is T1, phi3T_93.
Assay [5] concerns the target T2, YosL^phi3T (Bacillus subtilis phage phi3T).
T2 chain: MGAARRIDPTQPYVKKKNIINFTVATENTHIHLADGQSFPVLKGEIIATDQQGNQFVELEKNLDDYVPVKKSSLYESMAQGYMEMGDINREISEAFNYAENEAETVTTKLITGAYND

Assay [6] addresses T3, YosL^SPβ (Bacillus subtilis phage SPβ, UniProt O31877 1-117).
T3 chain: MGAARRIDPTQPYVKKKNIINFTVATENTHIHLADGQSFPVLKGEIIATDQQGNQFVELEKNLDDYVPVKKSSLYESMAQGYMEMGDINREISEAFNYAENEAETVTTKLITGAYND

For assay [7], the target named is T2, YosL^phi3T.
In assay [8] the target is T3, YosL^SPβ.

B1: AimX (natural protein)
chain: MKRALGKAISYEEMAKGYEEMAAINSIIAQEDNHLENEAEMIKTRYKTLAS
A word on the koff: it is the rate constant with which the complex falls apart. A higher koff goes with fast dissociation. Broadly, the Kd is the equilibrium constant for the complex coming apart. A low value points to higher affinity. For B1, the koff with MazF [1] turned out to be 0.0066 s⁻¹; with phi3T_93 [2], 0.045 s⁻¹. The Kd with MazF [3] was 81.3 nM; with phi3T_93 [4], 184 nM.

B2: MazE (natural protein)
chain: MSESSARTEMKISLPENLVAELDGVAMREKRSRNELISQAVRAYVSERTTRHNRDLMRRGYMEMAKINLNISSEAHFAECEAETTVERLVSGG
On to B2, for which the koff in the assay with MazF [1] is 0.01 s⁻¹; in the assay with phi3T_93 [2] it was 0.0013 s⁻¹. Further, the Kd with MazF [3] stood at 404 nM; with phi3T_93 [4], 27.3 nM.
For the molecule B3, the koff with YosL^phi3T [5] was 0.00033 s⁻¹; in the assay with YosL^SPβ [6] it was 0.00085 s⁻¹. Moreover, the results for the Kd in the assay with YosL^phi3T [7] and with YosL^SPβ [8] were 20.2 nM and 15 nM, respectively.
